Reference: article doi:10.1101/2024.02.27.582253, “Identification of an evolutionary conserved binding motif responsible for the recruitment of NMD factors to the UPF1 helicase” (bioRxiv, 2024)

T1: S. cerevisiae Upf1 helicase domain, Upf1-HD-His6 (residues 221-851) (S. cerevisiae, UniProt P30771 221-851)
T1 construct: Upf1 helicase domain, S. cerevisiae, residues 221-851; residues 224-851 seen in the final model; for the crystal it says only that the protein was purified on TALON resin; source: E. coli BL21 (DE3) Gold, purified (TALON, heparin, SEC); not shown: His6, C-terminal, kept
T1 sequence (looked up): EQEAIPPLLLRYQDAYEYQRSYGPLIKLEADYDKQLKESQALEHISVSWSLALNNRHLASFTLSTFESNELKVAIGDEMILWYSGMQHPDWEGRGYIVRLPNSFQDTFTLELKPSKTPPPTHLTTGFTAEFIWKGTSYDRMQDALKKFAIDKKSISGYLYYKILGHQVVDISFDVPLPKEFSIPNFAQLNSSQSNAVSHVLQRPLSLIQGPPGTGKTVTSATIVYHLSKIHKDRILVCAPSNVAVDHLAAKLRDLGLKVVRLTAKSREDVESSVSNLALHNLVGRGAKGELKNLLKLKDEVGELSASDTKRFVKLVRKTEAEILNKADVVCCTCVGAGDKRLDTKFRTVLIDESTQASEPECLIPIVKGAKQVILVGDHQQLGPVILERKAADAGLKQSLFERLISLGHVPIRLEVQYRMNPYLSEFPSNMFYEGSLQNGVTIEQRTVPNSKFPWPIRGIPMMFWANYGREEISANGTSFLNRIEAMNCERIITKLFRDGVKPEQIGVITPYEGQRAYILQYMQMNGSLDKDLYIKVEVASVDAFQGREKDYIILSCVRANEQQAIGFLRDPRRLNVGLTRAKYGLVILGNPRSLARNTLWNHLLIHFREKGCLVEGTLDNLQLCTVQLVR


Target: T1, S. cerevisiae Upf1 helicase domain, …
Experiment: ITC; His6-ZZ-Nmd4 proteins (260 µM full-length and arm, 330 µM PIN) injected into Upf1-HD-His6 (30-35 µM); 20°C; 100 mM Bis-Tris pH 6.5, 200 mM NaCl, 5 mM MgCl2, 5 mM 2-mercaptoethanol; one-binding site model
Settings: both partners purified

Kd	Binder
2100 nM	His6-ZZ-Nmd4 full-length protein (S. cerevisiae) (natural protein, UniProt Q12129 1-218, looked up, also called full-length Nmd4; His6-ZZ-Nmd4-FL; source: E. coli BL21 (DE3) Gold, purified (Ni-NTA, heparin, SEC; 3C digestion omitted); not shown: His6, N-terminal, kept; ZZ, N-terminal, kept) MTQYNFIIDASAFEKGLGNIKRWCSDCTEAVTLNFYIPTFTLNELDFLQQRRKSFAARESLKFIDRLDDSKFANLKVFIEFPEVLDIILWSDVMEHNDSSGKINIAKLPKRLKNLLKSCIYKCYLEGNEGLHWFLISEDPQIREMAMQCNIPSCSIVDVDSILSKDMNDKSFRESEKFNNMMLKNGTKEESENGREIIRTNFNKTVYASRGTGELWSP
1960 nM	His6-ZZ-Nmd4 « arm » (residues 168-218) (domain or fragment, S. cerevisiae, UniProt Q12129 168-218, looked up, Nmd4 C-terminal arm, S. cerevisiae, residues 168-218; also called « arm » region; source: E. coli BL21 (DE3) Gold, purified; not shown: His6, N-terminal, kept; ZZ, N-terminal, kept) NDKSFRESEKFNNMMLKNGTKEESENGREIIRTNFNKTVYASRGTGELWSP
